Measured values reported in FireProtDB (doi:10.1002/pro.3128).

Conditions: Homo sapiens, pH 7.3, 25 °C, Sodium citrate 5mM, KF 50mM, transition: 2, reversible: no, whole UniProt chain shown

B1: Pleckstrin homology domain-containing family F member 2 wild type, Q9H8W4 (protein)
chain: MVDRLANSEANTRRISIVENCFGAAGQPLTIPGRVLIGEGVLTKLCRKKPKARQFFLFNDILVYGNIVIQKKKYNKQHIIPLENVTIDSIKDEGDLRNGWLIKTPTKSFAVYAATATEKSEWMNHINKCVTDLLSKSGKTPSNEHAAVWVPDSEATVCMRCQKAKFTPVNRRHHCRKCGFVVCGPCSEKRFLLPSQSSKPVRICDFCYDLLSAGDMATCQPARSDSYSQSLKSPLNDMSDDDDDDDSSD
denaturant m value (GdnHCl, CD): 2.48 kcal/mol/M | denaturant midpoint (higher = more stable) (GdnHCl, CD): 1.51 M | unfolding free energy (GdnHCl, CD): 3.75 kcal/mol | denaturant m value (GdnHCl, Fluorescence): 2.93 kcal/mol/M | denaturant midpoint (higher = more stable) (GdnHCl, Fluorescence): 1.3 M | unfolding free energy (GdnHCl, Fluorescence): 3.8 kcal/mol | denaturant m value (Urea, CD): 1.16 kcal/mol/M | denaturant midpoint (higher = more stable) (Urea, CD): 3.45 M | unfolding free energy (Urea, CD): 4 kcal/mol | denaturant m value (Urea, Fluorescence): 1.19 kcal/mol/M | denaturant midpoint (higher = more stable) (Urea, Fluorescence): 3.42 M | unfolding free energy (Urea, Fluorescence): 4.07 kcal/mol
